In assay [1] the target is native nucleosomes purified from 0-6 h Drosophila embryos (H2B in nucleosomes) (Drosophila) (UniProt P02283).
For assay [2], the target named is recombinant histone H2B (unphosphorylated) (Drosophila) (UniProt P02283).
Assay [3] shares this target. As to conditions: scale: % of the activity determined for TFIID, TAF1 and CTK.

“recombinant TAF1 (Flag(M2)-epitope tagged, immunopurified) (from UniProt P51123) (enzyme)”: the turnover value for phosphorylation of H2B-S33 (in vitro kinase assay, scintillation counting) in assay [1] and in assay [2] was 2.5 s⁻¹ throughout. Regarding “CTKΔ1600 (CTK polypeptide lacking the S/T-kinase motif) (from UniProt P51123) (enzyme)”, in assay [3], the kinase activity (radiolabeled H2B cut from the gel, scintillation counting) was under 0.1.

As for “CTKΔATP (CTK polypeptide lacking the ATP binding motifs) (from UniProt P51123) (enzyme)”, in assay [3], the kinase activity (radiolabeled H2B cut from the gel, scintillation counting) was under 0.1. Same read-out and setting: for “CTK(D1538A) (from UniProt P51123) (enzyme)” the value was under 0.1. Regarding “TFIID (endogenous Drosophila melanogaster TFIID, immunopurified) (from UniProt P51123) (enzyme)”, the turnover value for phosphorylation of H2B-S33 (in vitro kinase assay, scintillation counting) was found to be 3.3 s⁻¹ in assay [1] and 2.6 s⁻¹ in assay [2]. For “TAF1 COOH-terminal kinase domain (CTK; amino acids 1496-2132) (from UniProt P51123) (enzyme)”, in that order: 2.6 s⁻¹ and 4.4 s⁻¹.

Source of the values: patent US20060115482A1, “Modifications of histone proteins as indicators of cell proliferation and differentiation” (The Regents of the University of California, priority 2004, published 2006).
